# Test results reported in paper PMC7952577, “Overcoming the design, build, test bottleneck for synthesis of nonrepetitive protein-RNA cassettes”.
# T1: Qbeta coat protein (strain MX1) (Qbeta virus (strain MX1), UniProt Q9T0R9)
# T1 sequence: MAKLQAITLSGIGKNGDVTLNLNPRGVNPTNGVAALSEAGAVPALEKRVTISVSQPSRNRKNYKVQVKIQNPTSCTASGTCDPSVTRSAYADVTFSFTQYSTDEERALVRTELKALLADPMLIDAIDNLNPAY
# B1: ms2_wt_1_d1 (ssRNA)
# RNA: UUAAUUAAAGAGGAGAAAGGUACCCAUGCACAUGAGGAUUACCCAUGUUGUGAGCAAGGGCGAGGAGGAUAACAUGGCCAUCAUCAAGGAGUUCAUGCGCUUCAAGGUGCACAUGGAGGG
# B2: pp7_wt_5_d1 (ssRNA)
# RNA: UUAAUUAAAGAGGAGAAAGGUACCCAUGCUAAGGAGUUUAUAUGGAAACCCUUAUGUGAGCAAGGGCGAGGAGGAUAACAUGGCCAUCAUCAAGGAGUUCAUGCGCUUCAAGGUGCACAUGGAGGG
# B3: qb_NOTpre_changeBulge_0004_d2 (ssRNA)
# RNA: UUAAUUAAAGAGGAGAAAGGUACCCAUGGCAUGCAUGUCUAAGACAGCAUCUGUGAGCAAGGGCGAGGAGGAUAACAUGGCCAUCAUCAAGGAGUUCAUGCGCUUCAAGGUGCACAUGGAGGG
# Columns and labels:
# Assay in all cases: iSort-seq, translational repression in E. coli Top10, 37 C
# Details in all cases: tags: C-GFP (kept); chain copies: 2
# [1] = target: MS2 coat protein V29I dlFG (Escherichia phage MS2 (Bacteriophage …, UniProt P03612, V30I;del68-81insG))
# [2] = target: PP7 coat protein dlFG (Pseudomonas phage PP7 (Bacteriophage …, UniProt P03630, ins1-2LA;del68-75insSG))
# [3] = target: T1, Qbeta coat protein (strain MX1)
binder,measurement,setting,value
B1,binding signal,[1],21.6 Rscore (log-likelihood ratio)
B2,binding signal,[2],6.62 Rscore (log-likelihood ratio)
B3,binding signal,[3],9.05 Rscore (log-likelihood ratio)
